Data: article PMC8871097

What was measured:
[1] = target: Pea seed ferritin purified from pea seed milk boiled for 5 min (Pisum sativum (pea)); assay: native gel or EMSA; Native-PAGE, 5-20% gradient gel, samples not boiled, 180 V, 4 °C, Coomassie brilliant blue R-250; assembly state of the purified ferritin
[2] = target: Pea seed ferritin purified from pea seed milk boiled for 10 min (Pisum sativum (pea)); assay: as above

B1: Pea seed ferritin purified from pea seed milk boiled for 5 min (natural protein)
chain: TTAPLTGVIFEPFEEVKKDYLAVPSVPLVSLARQNFADECESVINEQINVEYNASYVYHSLFAYFDRDNVALKGFAKFFKESSEEHREHAEKLMKYQNTRGGRVVLHPIKDVPSEFEHVEKGDALYAMELALSLEKLTNEKLLNVHSVAERNNDLEMTHFIEGEYLAEQVEAIKKISEYVAQLRRVGKGHGVWHFDQRLLHGVHGA
modifications: not checked
stoichiometry N [1]: 24

B2: Pea seed ferritin purified from pea seed milk boiled for 10 min (natural protein)
chain: TTAPLTGVIFEPFEEVKKDYLAVPSVPLVSLARQNFADECESVINEQINVEYNASYVYHSLFAYFDRDNVALKGFAKFFKESSEEHREHAEKLMKYQNTRGGRVVLHPIKDVPSEFEHVEKGDALYAMELALSLEKLTNEKLLNVHSVAERNNDLEMTHFIEGEYLAEQVEAIKKISEYVAQLRRVGKGHGVWHFDQRLLHGVHGA
modifications: not checked
stoichiometry N [2]: 24
